Experimental data taken from patent publication US20080305212A1.

What was measured:
Experiment in all cases: cell-based or functional assay
[1] = molecular target: T1, Trypsin-like protease (TL1) from Fusarium oxysporum (Fusarium oxysporum) (UniProt P35049)
T1 sequence: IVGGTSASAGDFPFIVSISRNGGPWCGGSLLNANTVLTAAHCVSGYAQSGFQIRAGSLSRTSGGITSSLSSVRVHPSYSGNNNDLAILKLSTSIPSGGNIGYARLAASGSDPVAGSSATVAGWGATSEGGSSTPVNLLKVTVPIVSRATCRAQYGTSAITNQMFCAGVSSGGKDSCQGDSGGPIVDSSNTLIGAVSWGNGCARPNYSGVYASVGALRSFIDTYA

[2] = molecular target: porcine trypsin (porcine) (UniProt P00761)
[3] = molecular target: T2, Trypsin-like protease (TL6) from Fusarium cf. solani (Fusarium cf. solani)
T2 sequence: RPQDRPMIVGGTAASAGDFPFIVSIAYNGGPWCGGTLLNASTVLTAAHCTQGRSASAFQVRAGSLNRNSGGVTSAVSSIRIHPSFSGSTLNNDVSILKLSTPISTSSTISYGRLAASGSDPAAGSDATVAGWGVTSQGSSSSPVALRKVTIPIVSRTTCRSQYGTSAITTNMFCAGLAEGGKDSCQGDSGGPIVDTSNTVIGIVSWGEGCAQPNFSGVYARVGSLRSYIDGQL

[4] = molecular target: T3, Trypsin-like protease (TL5) from Fusarium solani (Fusarium solani)
T3 sequence: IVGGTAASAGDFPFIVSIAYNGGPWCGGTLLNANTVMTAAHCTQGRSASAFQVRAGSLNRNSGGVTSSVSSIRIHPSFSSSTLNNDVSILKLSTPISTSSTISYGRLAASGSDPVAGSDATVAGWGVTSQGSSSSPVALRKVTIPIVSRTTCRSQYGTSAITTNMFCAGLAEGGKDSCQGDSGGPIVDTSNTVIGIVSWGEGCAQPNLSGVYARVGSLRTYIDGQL

bovine trypsin (bovine) = bovine trypsin (bovine) (UniProt P00760)

B1: Bowman-Birk inhibitor (commercial preparation, Cat # T-9777, Sigma-Aldrich) (protein, UniProt P01055 40-110, looked up)
chain: DDESSKPCCDQCACTKSNPPQCRCSDMRLNSCHSACKSCICALSYPAQCFCVDITDFCYEPCKPSEDDKEN
- % residual activity at 0.00048 mg/ml Bowman-Birk inhibitor (% residual activity) [1]: 117
- % residual activity at 0.00097 mg/ml Bowman-Birk inhibitor (% residual activity) [1]: 111
- % residual activity at 0.00195 mg/ml Bowman-Birk inhibitor (% residual activity) [1]: 103
- % residual activity at 0.0039 mg/ml Bowman-Birk inhibitor (% residual activity) [1]: 109
- % residual activity at 0.0078 mg/ml Bowman-Birk inhibitor (% residual activity) [1]: 82
- % residual activity at 0.0156 mg/ml Bowman-Birk inhibitor (% residual activity) [1]: 61
- % residual activity at 0.0313 mg/ml Bowman-Birk inhibitor (% residual activity) [1]: 32
- % residual activity at 0.0625 mg/ml Bowman-Birk inhibitor (% residual activity) [1]: 13
- % residual activity at 0.125 mg/ml Bowman-Birk inhibitor (% residual activity) [1]: 5.8
- % residual activity at 0.25 mg/ml Bowman-Birk inhibitor (% residual activity) [1]: 2.2
- % residual activity at 0.5 mg/ml Bowman-Birk inhibitor (% residual activity) [1]: 0.8
- % residual activity at 0.00048 mg/ml Bowman-Birk inhibitor (% residual activity) [2]: 11
- % residual activity at 0.00097 mg/ml Bowman-Birk inhibitor (% residual activity) [2]: 9.4
- % residual activity at 0.00195 mg/ml Bowman-Birk inhibitor (% residual activity) [2]: 8.3
- % residual activity at 0.0039 mg/ml Bowman-Birk inhibitor (% residual activity) [2]: 6.2
- % residual activity at 0.0078 mg/ml Bowman-Birk inhibitor (% residual activity) [2]: 3.2
- % residual activity at 0.0156 mg/ml Bowman-Birk inhibitor (% residual activity) [2]: 2.2
- % residual activity at 0.0313 mg/ml Bowman-Birk inhibitor (% residual activity) [2]: 1
- % residual activity at 0.0625 mg/ml Bowman-Birk inhibitor (% residual activity) [2]: 0.4
- % residual activity at 0.125 mg/ml Bowman-Birk inhibitor (% residual activity) [2]: 0.2
- % residual activity at 0.25 mg/ml Bowman-Birk inhibitor (% residual activity) [2]: 0.1
- % residual activity at 0.5 mg/ml Bowman-Birk inhibitor (% residual activity) [2]: 0.1
- % residual activity at 0.00048 mg/ml Bowman-Birk inhibitor (% residual activity) [3]: 104
- % residual activity at 0.00097 mg/ml Bowman-Birk inhibitor (% residual activity) [3]: 107
- % residual activity at 0.00195 mg/ml Bowman-Birk inhibitor (% residual activity) [3]: 94
- % residual activity at 0.0039 mg/ml Bowman-Birk inhibitor (% residual activity) [3]: 97
- % residual activity at 0.0078 mg/ml Bowman-Birk inhibitor (% residual activity) [3]: 84
- % residual activity at 0.0156 mg/ml Bowman-Birk inhibitor (% residual activity) [3]: 66
- % residual activity at 0.0313 mg/ml Bowman-Birk inhibitor (% residual activity) [3]: 55
- % residual activity at 0.0625 mg/ml Bowman-Birk inhibitor (% residual activity) [3]: 26
- % residual activity at 0.125 mg/ml Bowman-Birk inhibitor (% residual activity) [3]: 9.5
- % residual activity at 0.25 mg/ml Bowman-Birk inhibitor (% residual activity) [3]: 2.9
- % residual activity at 0.5 mg/ml Bowman-Birk inhibitor (% residual activity) [3]: 1.3
- % residual activity at 0.00048 mg/ml Bowman-Birk inhibitor (% residual activity) [4]: 78
- % residual activity at 0.00097 mg/ml Bowman-Birk inhibitor (% residual activity) [4]: 71
- % residual activity at 0.00195 mg/ml Bowman-Birk inhibitor (% residual activity) [4]: 57
- % residual activity at 0.0039 mg/ml Bowman-Birk inhibitor (% residual activity) [4]: 55
- % residual activity at 0.0078 mg/ml Bowman-Birk inhibitor (% residual activity) [4]: 43
- % residual activity at 0.0156 mg/ml Bowman-Birk inhibitor (% residual activity) [4]: 29
- % residual activity at 0.0313 mg/ml Bowman-Birk inhibitor (% residual activity) [4]: 19
- % residual activity at 0.0625 mg/ml Bowman-Birk inhibitor (% residual activity) [4]: 7.2
- % residual activity at 0.125 mg/ml Bowman-Birk inhibitor (% residual activity) [4]: 3.1
- % residual activity at 0.25 mg/ml Bowman-Birk inhibitor (% residual activity) [4]: 1.2
- % residual activity at 0.5 mg/ml Bowman-Birk inhibitor (% residual activity) [4]: 0.5
- % residual activity at 0.00048 mg/ml Bowman-Birk inhibitor (% residual activity) (bovine trypsin (bovine)): 0.9
- % residual activity at 0.00097 mg/ml Bowman-Birk inhibitor (% residual activity) (bovine trypsin (bovine)): 5.3
- % residual activity at 0.00195 mg/ml Bowman-Birk inhibitor (% residual activity) (bovine trypsin (bovine)): 0.1
- % residual activity at 0.0039 mg/ml Bowman-Birk inhibitor (% residual activity) (bovine trypsin (bovine)): -0.4
- % residual activity at 0.0078 mg/ml Bowman-Birk inhibitor (% residual activity) (bovine trypsin (bovine)): 0
- % residual activity at 0.0156 mg/ml Bowman-Birk inhibitor (% residual activity) (bovine trypsin (bovine)): -1.5
- % residual activity at 0.0313 mg/ml Bowman-Birk inhibitor (% residual activity) (bovine trypsin (bovine)): 0.1
- % residual activity at 0.0625 mg/ml Bowman-Birk inhibitor (% residual activity) (bovine trypsin (bovine)): 0
- % residual activity at 0.125 mg/ml Bowman-Birk inhibitor (% residual activity) (bovine trypsin (bovine)): 0
- % residual activity at 0.25 mg/ml Bowman-Birk inhibitor (% residual activity) (bovine trypsin (bovine)): 0
- % residual activity at 0.5 mg/ml Bowman-Birk inhibitor (% residual activity) (bovine trypsin (bovine)): 0
